Holding throughout (test): MST
In series [1] the test system is SUV420H1(1-390) R357A (human). Particulars: 40 uM SAM; text says NCP H2A, legend H4K20M; histone H4 K20M; MST: 20 mM HEPES pH 7.5, 50 mM NaCl (listed twice), 50 mM KCl, 1 mg/mL BSA, 0.05% Tween-20, 40 uM SAM, 2 mM DTT, room temperature; EMSA: 25 mM HEPES pH 7.5 …. On the technique in general: A gel shift assay detects complexes by their altered migration in electrophoresis.

Series [2] relates to SUV420H1(1-390) R352A (human). The following applies: 40 uM SAM; text says NCP H2A, legend H4K20M; histone H4 K20M; MST: 20 mM HEPES pH 7.5, 50 mM NaCl (listed twice), 50 mM KCl, 1 mg/mL BSA, 0.05% Tween-20, 40 uM SAM, 2 mM DTT, room temperature; EMSA: 25 mM HEPES pH 7.5 ….
The test system of series [3] is SUV420H1(1-390) K258A (human). The following applies: histone H4 K20M; MST: 20 mM HEPES pH 7.5, 50 mM NaCl (listed twice), 50 mM KCl, 1 mg/mL BSA, 0.05% Tween-20, 40 uM SAM, 2 mM DTT, room temperature; EMSA: 25 mM HEPES pH 7.5 ….
Series [4] deals with SUV420H1(1-390) R257A (human). The following applies: histone H4 K20M; MST: 20 mM HEPES pH 7.5, 50 mM NaCl (listed twice), 50 mM KCl, 1 mg/mL BSA, 0.05% Tween-20, 40 uM SAM, 2 mM DTT, room temperature; EMSA: 25 mM HEPES pH 7.5 ….
For series [5], the system named is SUV420H1(1-390) Y349A (human). The following applies: 40 uM SAM; text says NCP H2A, legend H4K20M; histone H4 K20M; MST: 20 mM HEPES pH 7.5, 50 mM NaCl (listed twice), 50 mM KCl, 1 mg/mL BSA, 0.05% Tween-20, 40 uM SAM, 2 mM DTT, room temperature; EMSA: 25 mM HEPES pH 7.5 ….
Series [6] concerns SUV420H1(1-390) R357H (human). The following applies: 40 uM SAM; text says NCP H2A, legend H4K20M; histone H4 K20M; MST: 20 mM HEPES pH 7.5, 50 mM NaCl (listed twice), 50 mM KCl, 1 mg/mL BSA, 0.05% Tween-20, 40 uM SAM, 2 mM DTT, room temperature; EMSA: 25 mM HEPES pH 7.5 ….
The test system of series [7] is SUV420H1(1-390) S255F (human). Particulars: histone H4 K20M; MST: 20 mM HEPES pH 7.5, 50 mM NaCl (listed twice), 50 mM KCl, 1 mg/mL BSA, 0.05% Tween-20, 40 uM SAM, 2 mM DTT, room temperature; EMSA: 25 mM HEPES pH 7.5 ….
For series [8], the system named is SUV420H1(1-390) R220A (human). Particulars: 40 uM SAM; text says NCP H2A, legend H4K20M; histone H4 K20M; MST: 20 mM HEPES pH 7.5, 50 mM NaCl (listed twice), 50 mM KCl, 1 mg/mL BSA, 0.05% Tween-20, 40 uM SAM, 2 mM DTT, room temperature; EMSA: 25 mM HEPES pH 7.5 ….
Series [9] relates to SUV420H1(1-390) R286A (human). The following applies: histone H4 K20M; MST: 20 mM HEPES pH 7.5, 50 mM NaCl (listed twice), 50 mM KCl, 1 mg/mL BSA, 0.05% Tween-20, 40 uM SAM, 2 mM DTT, room temperature; EMSA: 25 mM HEPES pH 7.5 ….
Series [10] concerns SUV420H1(1-390) S283L (human). The following applies: histone H4 K20M; MST: 20 mM HEPES pH 7.5, 50 mM NaCl (listed twice), 50 mM KCl, 1 mg/mL BSA, 0.05% Tween-20, 40 uM SAM, 2 mM DTT, room temperature; EMSA: 25 mM HEPES pH 7.5 ….

Broadly, the Kd is the equilibrium constant for the complex coming apart. A high value points to weaker binding.

Turning to NCP H2A, H4K20M, the dissociation constant Kd in [1] was determined as 213 nM; in series [2] it was 220 nM; in series [3], 112 nM; in series [4], 144 nM; in series [5], 108 nM; in [6] it was 83 nM. Besides, the dissociation constant Kd in series [7] worked out at 182 nM; in series [8] it was 93 nM; in series [9], 323 nM; in series [10], 85 nM.

Values taken from paper PMC10697951.
